Data taken from patent EP0554446B1.

Columns and labels:
[1] = target: HIV-1 IIIB gp120 (HIV-1 IIIB) (UniProt P03375); assay: cell-based or functional assay
[2] = target: HIV-1 MN gp120 (HIV-1 MN) (UniProt P05877); assay: cell-based or functional assay
[3] = target: HIV-1 RF gp120 (HIV-1 RF) (UniProt P04579); assay: cell-based or functional assay
[4] = target: HIV-1 MN gp120 (HIV-1 MN) (UniProt P05877); assay: ELISA of hybridoma supernatant on membranes of MN-infected against uninfected H9 cells
[5] = target: HIV-1 MN gp120 (HIV-1 MN) (UniProt P05877); assay: RIA of hybridoma supernatant on live HIV-1MN-infected against uninfected H9 cells, 125I rabbit anti-mouse IgG

UniProt P04579, sequence (P04579 32-865): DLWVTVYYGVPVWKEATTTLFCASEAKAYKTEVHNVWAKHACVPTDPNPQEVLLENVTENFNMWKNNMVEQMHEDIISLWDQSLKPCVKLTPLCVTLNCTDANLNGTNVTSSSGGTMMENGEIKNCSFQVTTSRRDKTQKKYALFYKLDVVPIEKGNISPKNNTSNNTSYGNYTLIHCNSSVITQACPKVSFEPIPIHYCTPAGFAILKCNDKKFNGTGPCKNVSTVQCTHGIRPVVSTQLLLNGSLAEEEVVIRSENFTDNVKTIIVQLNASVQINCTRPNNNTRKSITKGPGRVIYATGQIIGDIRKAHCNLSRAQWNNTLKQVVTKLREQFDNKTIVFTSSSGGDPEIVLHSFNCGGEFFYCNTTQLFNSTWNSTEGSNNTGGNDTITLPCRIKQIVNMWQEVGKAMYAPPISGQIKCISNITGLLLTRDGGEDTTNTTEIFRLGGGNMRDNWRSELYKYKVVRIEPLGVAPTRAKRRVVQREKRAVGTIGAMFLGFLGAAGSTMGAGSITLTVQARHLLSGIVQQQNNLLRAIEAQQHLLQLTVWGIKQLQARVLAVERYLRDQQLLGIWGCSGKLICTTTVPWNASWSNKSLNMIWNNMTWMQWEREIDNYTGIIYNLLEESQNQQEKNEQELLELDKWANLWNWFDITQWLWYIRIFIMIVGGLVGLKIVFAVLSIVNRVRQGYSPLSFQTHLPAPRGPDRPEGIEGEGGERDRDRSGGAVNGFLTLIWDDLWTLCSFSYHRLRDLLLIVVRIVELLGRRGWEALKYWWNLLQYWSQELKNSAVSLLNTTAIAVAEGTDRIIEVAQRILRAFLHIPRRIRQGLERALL
UniProt P05877, sequence (P05877 32-856): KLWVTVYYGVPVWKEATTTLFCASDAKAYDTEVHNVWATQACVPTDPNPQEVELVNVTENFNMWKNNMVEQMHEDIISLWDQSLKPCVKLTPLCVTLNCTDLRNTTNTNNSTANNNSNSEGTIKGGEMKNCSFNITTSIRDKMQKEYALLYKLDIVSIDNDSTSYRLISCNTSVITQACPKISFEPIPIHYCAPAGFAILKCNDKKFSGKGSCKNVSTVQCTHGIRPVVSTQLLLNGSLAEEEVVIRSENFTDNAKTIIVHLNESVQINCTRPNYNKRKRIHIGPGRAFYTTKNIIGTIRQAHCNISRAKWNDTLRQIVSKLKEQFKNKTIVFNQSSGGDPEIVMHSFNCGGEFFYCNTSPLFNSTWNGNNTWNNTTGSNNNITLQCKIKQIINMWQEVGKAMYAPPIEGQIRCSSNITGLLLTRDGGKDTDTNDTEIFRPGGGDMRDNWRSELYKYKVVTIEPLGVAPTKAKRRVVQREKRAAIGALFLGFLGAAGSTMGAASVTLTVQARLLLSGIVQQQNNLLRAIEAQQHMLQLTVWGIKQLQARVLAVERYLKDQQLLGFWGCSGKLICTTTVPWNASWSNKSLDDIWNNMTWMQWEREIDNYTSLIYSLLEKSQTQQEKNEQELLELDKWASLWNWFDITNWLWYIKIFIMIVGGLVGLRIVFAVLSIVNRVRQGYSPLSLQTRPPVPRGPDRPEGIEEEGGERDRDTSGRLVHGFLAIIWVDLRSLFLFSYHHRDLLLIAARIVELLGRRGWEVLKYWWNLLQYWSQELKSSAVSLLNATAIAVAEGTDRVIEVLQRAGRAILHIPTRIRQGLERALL

With monoclonal antibody NM-01 the ID50, live IIIB virus, MT-2 assay [1] was 0.1 µg/mL, the ID50, live IIIB virus, reverse transcriptase assay [1] was 0.1 µg/mL and the ID50, syncytium formation by IIIB-infected H9 cells with C8166 cells [1] was 3 µg/mL. It also gave a percent inhibition of syncytium formation by IIIB-infected cells at 25 µg antibody [1] of 85%, an ID50, live MN virus, MT-2 assay [2] of 2 µg/mL and an ID50, live MN virus, reverse transcriptase assay [2] of under 1 µg/mL. For the same substance, the ID50, syncytium formation by MN-infected H9 cells with C8166 cells [2] was 2 µg/mL, the percent inhibition of syncytium formation by MN-infected cells at 25 µg antibody [2] was 85% and the ID50, live RF virus, reverse transcriptase assay [3] was 0.05 µg/mL. The ID50, syncytium formation by RF-infected cells [3] was 4 µg/mL, the percent inhibition of syncytium formation by RF-infected cells at 25 µg antibody [3] was 59% and the ELISA ratio, infected cell membranes to uninfected cell membranes (Run 1) [4] was 5.76. The RIA Ratio cpm inf/cpm uninf [5] was 9.81.
